The values below come from US20230374072A1 (priority 2020, published 2023).

The data set has as its system TNF expression in HUVEC cell culture.

Turning to “Gly-Asp-Cys-Pro-Pro-Trp-Cys-Gly-Ala-Arg-Cys-(XXX)-Cys [SEQ ID NO:1 scaffolding protein]”, the “toxic activity (activity of the toxin)” value is given as “does not present any type of toxic activity”.
